# ± gives the standard error. Variants at the floor of the assay were thinned out.
# B1: glmS ribozyme (parent)
# chain: AUAAAAGCGCCAGAACUACAGAAAUGUAGUUGACGAGGAGGAGGUUUAUCGAAUUUUCGGCGGAUGCCUCCAAA
# Variants of: B1
# Test: self-cleavage kobs at 2500 uM GlcN6P; higher = faster cleavage; RNA array
# Conditions: with glucosamine-6-phosphate
# Summary of the method: (§1)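 kobs was derived by fitting per-tile medians to one- or two-exponential decays after normalising signals to baseline and to non-cleaving reference variants. Those signals came from barcoded ribozyme variants transcribed in situ by E. coli RNA polymerase on sequenced MiSeq chips, followed through a hybridised Cy3 probe at 37 °C and imaged over ~14 h. Glucosamine-6-phosphate (40 μM to 10 mM) in HEPES/KCl/Mg(OAc)2 buffer was flowed in. Weighted Michaelis–Menten fits across concentrations then gave kcat and KM.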
row,Variant,self-cleavage kobs at 2500 uM GlcN6P [s⁻¹]
1,A12C G13A A14G U31G,7.54e-05 ± 3e-05
2,G29U U46A U56A G62U C68U,< 1e-05
3,G32C A36C G51C A53C G66A,< 1e-05
4,G32U U56G G66U,6.54e-05 ± 1.6e-05
5,G13U A14G U47C,8e-05 ± 2.7e-05
6,G7A G9A A14C G44A,< 1e-05
7,U31G G44U G51C C58U G63U,< 1e-05
8,G35C U46G U56A,< 1e-05
9,A14G G43C U57C,< 1e-05
10,G37A A39G C71G,0.000523 ± 0.00013
11,C10U G29U A39G U57C C71A,< 1e-05
12,C10G G43A A52G A53C C70U,< 1e-05
13,C16A A36C A42C U55C U56A U57G C58U C71G,< 1e-05
14,A36G A52C C68U,< 1e-05
15,C16A G32A G37U,< 1e-05
16,C8G A39U C71A,< 1e-05
17,G32U G35A A64G C71U,< 1e-05
18,A52G U55A,0.000757 ± 0.00015
19,C16G U30C C34G U55C C61U C67U,< 1e-05
20,U47A A53U U65A,0.00126 ± 0.00036
21,U46G A48U C61A,< 1e-05
22,C11G A52U C68U,< 1e-05
23,U45C A48U U65A,< 1e-05

row,Variant,self-cleavage kobs at 2500 uM GlcN6P [s⁻¹]
1,A6G A14G G40A,3.86e-05 ± 1.1e-05
2,G29U G32C U56A,7.28e-05 ± 1.4e-05
3,A12G U56G G66A,0.000134 ± 2.5e-05
4,A12G A36C C70U,< 1e-05
5,G29C A42U U47A,< 1e-05
6,G38A U45C A52U,< 1e-05
7,A6G G35U G51U C58U,< 1e-05
8,A39U G60A U65G,< 1e-05
9,G29U G32C A53G C70U,6e-05 ± 1.4e-05
10,G29A A48U A53U C58A G59U,< 1e-05
11,G35C A39U G59A,< 1e-05
12,U31G A36U C50A C71G,0.000265 ± 0.00012
13,G29U C58G C71A,0.000118 ± 3.2e-05
14,G9C C11A G44U G63A C67U,< 1e-05
15,C34U G35A G44C U54A U65G,< 1e-05
16,A14G U45G C71U,0.0021 ± 0.0006
17,A36C G41A U56G G60A C68U,< 1e-05
18,A39C U47C U55A,0.000971 ± 0.00023
19,G29A G35U G41A,< 1e-05
20,G32A A39U U69A,< 1e-05
21,G7A U30A G60C,< 1e-05
22,C8A G35U A52U,< 1e-05
23,A14U A15G G32U U57G U69A,0.000285 ± 0.00012

row,Variant,self-cleavage kobs at 2500 uM GlcN6P [s⁻¹]
1,G29U A36G A42G G43C G62U U65C U69C,< 1e-05
2,C10G A14C A48C C50U,< 1e-05
3,A6C G38A G62U,< 1e-05
4,A52U U57A C67U,0.000441 ± 9.6e-05
5,A48C A52G C58U,< 1e-05
6,C8U U46G C61U,< 1e-05
7,G9C A48C G51C,< 1e-05
8,G35U A36U A53U G63C,< 1e-05
9,A33U A53G G62C U65C,< 1e-05
10,A36G A52U A64G,< 1e-05
11,A48C C50G A64C,< 1e-05
12,A6G A36C C58A,< 1e-05
13,A6U A15G A53G,0.000262 ± 4.9e-05
14,C11U G44U C67G,0.00425 ± 0.0019
15,A39G G40C G41C U46G A52G,< 1e-05
16,C11U U54A C70G,9.38e-05 ± 2.4e-05
17,G7U U31C G43A,< 1e-05
18,C11U A14G A33G C68A C71A,0.000684 ± 0.00034
19,C11A A12U G32U C50U U56A C58A,< 1e-05
20,A12C A14G U69G,0.000112 ± 3.2e-05
21,U46G C50G C68G,4.12e-05 ± 2e-05
22,A14G U56G C71U,0.0458 ± 0.019
23,A33C C61A G62U,< 1e-05

row,Variant,self-cleavage kobs at 2500 uM GlcN6P [s⁻¹]
1,A14U A48C C70U,3.58e-05 ± 1.6e-05
2,C16A C34A C70U,< 1e-05
3,C11G G26U G43C,< 1e-05
4,A14U G29U C67G,6.46e-05 ± 2.8e-05
5,G43C U47A G62U C71U,< 1e-05
6,A14U G51C A64G,< 1e-05
7,G38U G40U C70A,< 1e-05
8,A33U G51C A53C,< 1e-05
9,G43U U54A C58U G59C C61G G62C A64G U65A G66U,< 1e-05
10,A6C A48G A52G,< 1e-05
11,C11U C16A G44U G60A,< 1e-05
12,C11A C16U A23C A39G U54C C58U,< 1e-05
13,A33G G44U G63U,< 1e-05
14,G29U C50U C61U,< 1e-05
15,A14C A15U C61U C67A,< 1e-05
16,C8U C16G G29C,< 1e-05
17,A12G G62A U69A C70A,0.000135 ± 5.1e-05
18,G7U C11G G13A A14U G32U A33C G37A G40A U47C,< 1e-05
19,C10A G60C G63C C67A C68G C70G C71U,4.85e-05 ± 2.2e-05
20,C11A C50U C61U C67G,0.000136 ± 5.6e-05
21,A15C G66U U69C,4.52e-05 ± 1.5e-05
22,G32C A42G G59U,< 1e-05
23,C10A G62C C68A,0.00024 ± 0.00011

row,Variant,self-cleavage kobs at 2500 uM GlcN6P [s⁻¹]
1,A15G G44U C50U A64U,< 1e-05
2,C10A U47C G62U,< 1e-05
3,A12U A33U G40U,3.71e-05 ± 1.4e-05
4,A6U G41U G59A G62C,< 1e-05
5,G7U C8G U49A,< 1e-05
6,U47G C50A A64C,0.000126 ± 3.2e-05
7,C10U U31G U49A G62U,< 1e-05
8,G51U U54G C61U,< 1e-05
9,G37C U45A G60U A64C,< 1e-05
10,G29U A64G C67G,6.02e-05 ± 1.3e-05
11,U55G C58G G60U,< 1e-05
12,G13A A15U C58G U65G C70G,7.13e-05 ± 3.5e-05
13,A12U G62C C70G,< 1e-05
14,G7U U31G C61A C70A,< 1e-05
15,G32C A53C U65C,< 1e-05
16,G9U C10G C16U,< 1e-05
17,G35U U45C G51C G59U,< 1e-05
18,G9C U49A G51A C70U C71A,< 1e-05
19,G32U U57A C61A,< 1e-05
20,G32U G35C U46G,< 1e-05
21,G32A G40A U69G,< 1e-05
22,G38U G43A U47C C67U,< 1e-05
23,G37A U49A A52G,< 1e-05

row,Variant,self-cleavage kobs at 2500 uM GlcN6P [s⁻¹]
1,U30G C58G G60U,< 1e-05
2,C10U C11U A36C A42U A48C,< 1e-05
3,A33G A42U C70U,< 1e-05
4,G9C G37U C58U G62U A64U C70G,< 1e-05
5,G7U C16U A33U,< 1e-05
6,C8U G9C C11G A14C U45G C50G C71G,< 1e-05
7,C34U U54G G63U,< 1e-05
8,A12C U46C C70A,3.42e-05 ± 1.2e-05
9,G9U A14U A42C,< 1e-05
10,G29U U47G C50G G63C,0.000136 ± 5.4e-05
11,A14U C34A A48G C68G C71A,< 1e-05
12,U30C U47A C70A,8.14e-05 ± 3.8e-05
13,G7U A53G U57A,< 1e-05
14,U46A A53U C68U,0.000125 ± 6.3e-05
15,C68U U69C C70U,3.99e-05 ± 1.4e-05
16,G13A U54G C68A,7.33e-05 ± 2.7e-05
17,C8G A36C A53C,< 1e-05
18,U30C G37C G38C,< 1e-05
19,G9A A14G G41U,< 1e-05
20,A6G U30C C34U,< 1e-05
21,C10G A39G G66A C67U C71G,7e-05 ± 3.1e-05
22,G7C G29A G62U,< 1e-05
23,U46G U49G C50U A52G,< 1e-05

row,Variant,self-cleavage kobs at 2500 uM GlcN6P [s⁻¹]
1,A12G C16U G43A U45C,< 1e-05
2,A6G A36U A48U C50U,< 1e-05
3,A6C A36U G37C A39U,< 1e-05
4,A12U G43U C50U G59A,< 1e-05
5,C58U U65A C68G,0.000102 ± 3.1e-05
6,A36U A39G C67G,< 1e-05
7,A33U A39C G62C,< 1e-05
8,G7A A39C U54G U57A C58U G66U,< 1e-05
9,A14C U30G A52G,4.27e-05 ± 2.1e-05
10,G13U A42C U47C U57C,< 1e-05
11,C10U A48C C58U,< 1e-05
12,A52U C61G C67U,8.45e-05 ± 3e-05
13,A36U G63A,< 1e-05
14,A14G A42G G44A U55G,0.000136 ± 4.1e-05
15,A12C A15U U46A C71A,< 1e-05
16,A39C G41C G66U,< 1e-05
17,C10G G41A,< 1e-05
18,G32U G44C U47G,< 1e-05
19,A12G A14G G32U A33U G51C,< 1e-05
20,C8U G51U U57C C58A,< 1e-05

# Variants of: B1
# Test: self-cleavage kobs at 10000 uM GlcN6P; higher = faster cleavage; RNA array
# Conditions: with glucosamine-6-phosphate
# Summary of the method: as §1
row,Variant,self-cleavage kobs at 10000 uM GlcN6P [s⁻¹]
1,G13U A14G U47C,0.000208 ± 5.4e-05
2,A52G U55A,0.00185 ± 0.00032
3,U45C A48U U65A,< 1e-05
4,A39U G60A U65G,< 1e-05
5,A36C G41A U56G G60A C68U,< 1e-05
6,G7A U30A G60C,< 1e-05
7,A52U U57A C67U,0.000894 ± 0.0002
8,A6U A15G A53G,0.000262 ± 5.8e-05
9,C10A U47C G62U,< 1e-05
10,G32A G40A U69G,< 1e-05
11,G37A U49A A52G,< 1e-05
12,C34U U54G G63U,< 1e-05
13,A14U C34A A48G C68G C71A,0.000226 ± 7.7e-05
14,C8G A36C A53C,< 1e-05
15,U30C G37C G38C,< 1e-05
16,G13U A42C U47C U57C,< 1e-05

# From the supplement of paper PMC7125110
